We go through one molecule from US20040248211A1, “ICAM-related protein” (priority 1992, published 2004).

Holding throughout (format): cell-based, human
In one test the test system is PBMC. In words: PBMC proliferation with or without rIL-2. The settings on record: immobilized antibody 10 μg/well; with or without rIL-2 10 units/ml; 3 days. The procedure: Ten μg of ICAM-R monoclonal antibodies ICR-1.1 or ICR-4.2 (or control IgG1 and IgG2) antibodies) in PBS were added per well of 96-well flat bottom tissue culture plates and the plates were incubated for 3-4 hours at 37° C. in a 5% CO2 incubator. After incubation, each well was rinsed 3 times with PBS and freshly obtained PBL were added to a final concentration of 2×10^5 cells/well in a volume of 200 μl. Ten units/ml human recombinant IL-2 (Genzyme, Boston, Mass.) was then added to selected wells. The plates were incubated for a total of 3 days at 37° C. in a 5% CO2 incubator. ^3H-thymidine incorporation by the PMBC was determined as described earlier in this example. […] Positive controls for lymphocyte proliferation included immobilized anti-CD3 and anti-LFA-1 (60.3) monclonal antibodies.

Test [1] deals with PBMC and CD4+ T-lymphocytes. In words: Costimulation of anti-CD3 induced lymphocyte proliferation. The settings on record: anti-CD3 G19 0.001 μg/well; antibody 10 μg/well; 3 days. The procedure:
Because anti-ICAM-R antibodies with anti-CD3 antibodies costimulated early PBMC activation events, anti-ICAM-R antibodies were tested for the ability to costimulate lymphocyte proliferation induced by immobilized anti-CD3 antibody. In addition, to determine whether anti-ICAM-R antibodies costimulate T-lymphocytes in the absence of accessory cells, anti-ICAM-R antibodies were tested for their ability to costimulate proliferation of pure CD4^+ T-lymphocytes, isolated using negative'selection. To isolate CD4^+ cells PBMC were suspended in tissue culture medium, added to 75 ml tissue culture flasks (Corning) and incubated for 1 hour at 37° C., 5% CO2. Plastic nonadherent cells were then removed from the flask by gently rinsing once with PBS. The nonadherent cell fraction was suspended (10^7 cells/ml) in an antibody cocktail containing 1 μg/ml anti-CD8 antibody (Pharmingen, San Diego, Calif.), 1 μg/ml anti-CD19 (Becton Dickinson), 1 μg/ml anti-CD11b (Becton Dickinson) in 10% FBS-PBS (coating medium), and incubated for 1 hour at 4° C. Unbound antibody was removed by washing twice in coating medium. […] Lymphocyte proliferation was measured by ^3H-thymidine incorporation by the PMBC or CD4^+ cells. […]

In the next test the test system is PBL. In words: Detergent resistance (cytoskeleton association) assay, PBL. The method, then: Experiments were conducted using freshly prepared human PBL or the human T lymphoblastoid cell line CEM-CCRF (ATCC CCL119). Briefly, freshly drawn human blood from healthy volunteer donors was diluted 1:1 with PBS and layered onto Sigma HistoPaque density separation medium. The gradients were centrifuged for 30 minutes at 1500 rpm (600×g) and the mononuclear cell fraction at the interphase was collected and washed three times with PBS. The cell pellet was resuspended in complete RPMI-1640 medium (Gibco, supplemented with L-glutamine, penicillin/streptomycin, sodium pyruvate, 2-mercaptoethanol, and 10% FBS) and plated onto tissue culture-treated petri dishes for adherent cell depletion. Plates were incubated 1-2 hours at 37° C., 5% CO2 after which nonadherent PBL were harvested and washed twice with ice-cold PBS. Conjugation of monoclonal antibodies to fluorescein using fluorescein isothiocyanate (FITC) was performed according to published procedures [see, e.g., Goding, J. Immunol. Meth., 13: 215 (1976)] and, in brief, involves incubation of purified antibody with an excess of FITC (Sigma) in 0.1M bicarbonate buffer pH 8.1 for 90 minutes at 37° C. followed by exhaustive dialysis against PBS to remove unreacted FITC. […]

B1: ICR-1.1: anti-ICAM-R monoclonal antibody, IgG2a, domain 1, ATCC HB 11053 (antibody, V domains shown)
VH: QVQLQQSGAELAKPGASVKMSCKASGYTFTVYWMHWVKQRPGQGLEWIGYINPNTDYTEYNQRFQDKATLTADKSSSTAYMQLSSLTSEDSAVYYCARWGGNSYGLDYWGQGTSVTVSS
VL: QIVLTQSPALMSASPGEKVTMTCSASSSVSYIYWYQQKPRSSPKPWIYLTSNLASGVPARFSGSGSGASYSLTISIMEAEDAATYYCQQWKSIPLTFGAGTKLELK
B1: the “PBMC proliferation (3H-thymidine)” value in the test with PBMC is given as “did not induce PMBC proliferation even in the presence of rIL2”. Besides, in test [1], the “proliferative response to immobilized anti-CD3” value is “increased the PBMC and purified CD4^+ cell response to anti-CD3”. In addition, the “greater increase in detergent resistance, crosslinked antibody” value with PBL is “approximately 2 fold”.
